Experiments:
[1] = target: ADAM12-Cat (truncated ADAM12 protein consisting of only the pro and catalytic domains) (human) (UniProt O43184); experiment: enzyme inhibition kinetics
[2] = target: ADAM12-S (shorter secreted form of ADAM12), full-length (human) (UniProt O43184); experiment: enzyme inhibition kinetics

Substance | Ki [1] | Ki [2]
N-TIMP-1[T98L] (domain or fragment) | 11.2 nM | 21.7 nM
N-TIMP-1[TIMP-2-ABloop] (domain or fragment) | 247 nM | > 500 nM
N-TIMP-1[TIMP-3-ABloop] (domain or fragment) | – | 66 nM
N-TIMP-1[V4A] (domain or fragment) | – | 190 nM
N-TIMP-1[V4S] (domain or fragment) | – | 122 nM
N-TIMP-1^TACE (V4S/V69L/T98L/TIMP-3-ABloop) (domain or fragment) | 1.9 nM | 16.4 nM
N-TIMP-2 (N-terminal domain of TIMP-2), wild-type (domain or fragment) | 5.5 nM | 69.7 nM
N-TIMP-2-ΔABloop (N-TIMP-2 with the AB-loop deleted) (domain or fragment) | 2.5 nM | 28.1 nM
N-TIMP-2^TACE (S2T/A70S/V71L/TIMP-3-ABloop) (domain or fragment) | 0.65 nM | –
N-TIMP-2^TACE[F34G] (domain or fragment) | – | 18 nM
N-TIMP-2^TACE[L100E] (domain or fragment) | 4.1 nM | 22 nM

— publication PMC3025530
